Measured values: patent US10369229B2, “Methods and compositions for liposomal formulation of antigens and uses thereof” (priority 2009, dated 2019)

Columns and labels:
[1] = Circular dichroism of liposomal lipopeptides (percent helicity); assay type: physicochemical; settings: formulated in liposomes; estimated from θ222
Description: Liposomal lipopeptide samples were prepared as described above with the following modifications. Stock liposome solutions containing 5 mM carrier lipid and 500 μM lipopeptide were prepared in 10 mM phosphate, pH 7.4. To minimize light scattering, liposomes were prepared by bath sonication under argon until a size of less than 100 nm was obtained. For analysis, samples were diluted to 5 μM lipopeptide in 10 mM phosphate buffer containing 1 mM carrier lipid. Spectra were obtained with a J-715 spectrapolarimeter (Jasco, Easton, Md.) and data were processed using Jasco software. Data were acquired in continuous scanning mode with a pathlength of 1 cm, 0.1 nm interval and scan speed of 1 nm/s. Each spectrum represents an average of two scans. A background spectrum of “empty” liposomes in buffer was subtracted from each sample spectrum. Percent helicity was estimated from θ222 according to the method of Taylor and Kaiser.

[2] = system: N-MPR (2F5 epitope of HIV-1 gp41 MPR); settings: BALB/C mice, Day 28 sera
Description: All animal procedures were conducted in accordance with the policies and approval of the appropriate Institutional Animal Care and Use Committee. 8 week-old female BALB/C mice (Jackson Laboratories, Bar Harbor, Me.) were housed in a pathogen-free barrier facility. Animals received subcutaneous immunizations in alternating hind hocks on Days 0 and 14. Each injection contained 50 μg lipopeptide, 25 μg MPL and 1 μmol lipid vehicle in 50 μL sterile phosphate-buffered saline. On Day 28 blood was collected from the submandibular vein for characterization of antibody responses. Cells were removed by centrifugation at 14,000 rpm for 15 min (5415C, Eppendorf, Westbury, N.Y.) and sera were stored at −80° C. until use.
ELISAs were developed to quantify binding of immune sera to peptides, lipids, and recombinant gp140. Peptide ELISAs were conducted using MPR peptides biotinylated as described above and captured on 96 well streptavidin-coated plates (#15120, Pierce, Rockford, Ill.). Assays were performed according to the manufacturer's instructions with modifications. […] The reaction was stopped with 0.5M H2SO4 and the yellow product was monitored at 450 nm (Optimax, Molecular Devices, Sunnyvale, Calif.). […] IgG1/IgG2a ratios were calculated as an average of optical density quotients measured at 3 dilutions after subtraction of background values. […]

N-MPR: peptide corresponding to the 2F5 epitope of HIV-1 gp41 MPR (SEQ ID NO: 2) (NEQELLELDKWASLWNGGK)
helicity (helical content) [1]: 20.7%
mice with detected anti-peptide response [2]: 2 of 5
